Results from PMC3205447.

Legend:
TRAF2 = TRAF2 (UniProt P39429); test: anti-TRAF2 IP, TAX1BP1 immunoblot; conditions: reference: wild type; sites S593,S624
TRAF6 = TRAF6 (UniProt P70196); test: anti-TRAF6 IP, TAX1BP1 immunoblot; conditions: reference: wild type; sites S593,S624
Sequence of UniProt P70196 (P70196 whole entry, looked up): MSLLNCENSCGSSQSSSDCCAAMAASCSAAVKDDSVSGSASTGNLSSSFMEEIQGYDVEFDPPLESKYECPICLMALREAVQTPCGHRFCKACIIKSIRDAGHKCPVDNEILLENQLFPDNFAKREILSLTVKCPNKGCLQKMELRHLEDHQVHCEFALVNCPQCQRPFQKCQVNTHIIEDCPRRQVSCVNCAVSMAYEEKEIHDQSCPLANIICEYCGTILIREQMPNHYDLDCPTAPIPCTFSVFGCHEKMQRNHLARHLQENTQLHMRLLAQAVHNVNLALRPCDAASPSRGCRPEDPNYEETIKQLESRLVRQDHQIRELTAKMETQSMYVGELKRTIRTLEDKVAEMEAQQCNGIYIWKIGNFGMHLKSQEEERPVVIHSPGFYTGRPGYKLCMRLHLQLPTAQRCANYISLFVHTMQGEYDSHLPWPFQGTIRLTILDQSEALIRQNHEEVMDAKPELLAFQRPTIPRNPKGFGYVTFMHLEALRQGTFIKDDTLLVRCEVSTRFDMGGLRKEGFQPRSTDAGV

Sequence of UniProt P39429 (P39429 whole entry, looked up): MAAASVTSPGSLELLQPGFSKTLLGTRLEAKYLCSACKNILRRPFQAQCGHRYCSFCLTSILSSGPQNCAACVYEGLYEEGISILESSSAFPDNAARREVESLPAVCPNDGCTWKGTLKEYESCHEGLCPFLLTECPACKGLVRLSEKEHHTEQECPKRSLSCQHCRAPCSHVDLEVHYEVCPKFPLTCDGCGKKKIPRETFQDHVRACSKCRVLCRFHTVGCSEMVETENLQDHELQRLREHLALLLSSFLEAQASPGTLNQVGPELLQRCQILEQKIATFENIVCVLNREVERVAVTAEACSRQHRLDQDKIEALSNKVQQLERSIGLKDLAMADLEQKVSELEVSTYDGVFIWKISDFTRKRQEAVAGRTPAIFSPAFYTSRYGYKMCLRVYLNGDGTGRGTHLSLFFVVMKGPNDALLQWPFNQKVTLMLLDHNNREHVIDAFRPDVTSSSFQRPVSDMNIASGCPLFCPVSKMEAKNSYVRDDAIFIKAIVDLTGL

- binding against the reference (TRAF2): lost
- binding against the reference (TRAF6): lost
Substance: TAX1BP1 (Flag-tagged, amino acids 1–747) 1-747 (from UniProt Q86VP1-2) S593A, S624A
